Laboratory results: patent publication US11510990B2, “Conjugates of fusion proteins of GLP-1 and FGF21” (BEIJING QL BIOPHARMACEUTICAL CO., LTD., priority 2020, dated 2022)

How the values were obtained:
[1] = Body weight reduction in C57BL/6 mice, daily subcutaneous dosing; assay type: in vivo; conditions: for Body weight reduction at 30 nmol/kg (% reduction compared to vehicle)(Day11): male C57BL/6 mice, 30 nmol/kg subcutaneously everyday, Day 11; for BW reduction compared to Semaglutide: 30 nmol/kg, 10-day dosing period (FIGS. 1A-1B)
Procedure: FIGS. 1A-1F show in vivo activities of fusion protein conjugates. […] Body weight was measured daily. […] Compared to Vehicle control: ***, p<0.001. All data are expressed as mean values and standard error (SEM).
10 week old male C57BL/6 mice were injected everyday subcutaneously with 30 nmol/kg exemplary fusion protein conjugates for 10 or 14 days (n=5). Body weight was daily monitored for each individual animal. Day 1 and Day 10 (or Day 14) are first day and last day of molecule dosage. % BW loss=100*(BW on Day n-BW on Day 1)/(BW on Day 1). Data are indicated as mean values and standard error (SEM) or pooled values. Statistical analysis was performed by One-way ANOVA. Body weight reduction on Day 11 in Table 5 is calculated by −1*(% BW loss−% BW loss of vehicle group).

[2] = Pharmacokinetic measurement in C57BL/6 mice, single subcutaneous dose, plasma ELISA; assay type: in vivo; conditions: for AUC compared to non-acylated fusion protein (Compound 3) / Half-lives of double acylated compared to monoacylated Compounds 9 and 10 / PK properties compared to Semaglutide: 30 nmol/kg subcutaneous; for AUClast / Cmax / Terminal t1/2 / Tmax: single subcutaneous dose 30 nmol/kg, plasma
Procedure: Each fusion protein conjugate was injected subcutaneously into C57BL/6 mice (n=3/group) once and plasma samples were collected at designed timepoints and analyzed by ELISA method. Plasma concentrations are indicated as mean values and standard error (SEM).
6-8 week old male C57BL/6 mice were administrated in a single subcutaneous dose of 30 nmol/kg of the exemplary fusion protein conjugates (Compounds 4, 9, 10, 19, 63) or the non-acylated fusion protein (i.e., Compound 3, which has the amino acid sequence identical to Compound 2 but without any conjugation) (n=3/group). Plasma samples were collected pre-dose (−5 min), 0.5 hr, 1 hr, 2 hr, 4 hr, 6 hr, 8 hr, 12 hr and 24 hr hours after the injection. For Compound 3, plasma collection timepoints were −5 min, 0.25 h, 0.5 h, 1 h, 2 h, 4 h and 6 h. The concentrations of the fusion protein conjugates or the non-acylated fusion protein in the plasma were measured by an ELISA assay which has immunoreactivities towards both C-terminal FGF21 and intact N-terminal of GLP-1. Based on the graph showing plasma concentration of each protein versus time after subcutaneous injection, the pharmacokinetic parameters were calculated by WinNonlin.
Pharmacokinetic data were analyzed by WinNonlin software. Tmax, Cmax, T1/2, AUC and MRT were calculated for each molecule.

Molecule | Body weight reduction at 30 nmol/kg (% reduction compared to vehicle)(Day11) [1] | BW reduction compared to Semaglutide [1] | AUC compared to non-acylated fusion protein (Compound 3) [2] | Half-lives of double acylated compared to monoacylated Compounds 9 and 10 [2] | PK properties compared to Semaglutide [2] | AUClast [2] | Cmax [2] | Terminal t1/2 [2] | Tmax [2]
Compound 66: GLP-1/FGF21 fusion polypeptide SEQ ID NO: 163 conjugated with Moiety B at 51C and 225C (conjugate, Moiety B conjugated at C51 and C225) HGEGTFTSDVSSYLEEQAAKEFIAWLVKGGGGSAPGSPAGSPTGSAPGSPCHPIPDSSPLLQFGGQVRQRYLYTDDAQQTEAHLEIREDGTVGGAADQSPESLLQLKALKPGVIQILGVKTSRFLCQRPDGALYGSLHFDPEACSFRELLLEDGYNVYQSEAHGLPLHLPGQKSPHRDPAPRGPARFLPLPGLPPALPEPPGILAPQPPDVGSSDPLSLVGGSQCRSPSYES | 18.9% |  |  |  |  |  |  |  | 
Compound 71: GLP-1/FGF21 fusion polypeptide SEQ ID NO: 168 conjugated with Moiety B at 52C and 282C (conjugate, Moiety B conjugated at C52 and C282) HGEGTFTSDVSSYLEEQAAKEFIAWLVKGGGGAQPGAQPGAQPGAQPGAQPCQAPGAQPGAQPGAQPGAQPGAQPGAQPGAQPGAQPGAQPGAQPGAQPGAQPGAQPGAQPHPIPDSSPLLQFGGQVRQRYLYTDDAQQTEAHLEIREDGTVGGAADQSPESLLQLKALKPGVIQILGVKTSRFLCQRPDGALYGSLHFDPEACSFRELLLEDGYNVYQSEAHGLPLHLPGQKSPHRDPAPRGPARFLPLPGLPPALPEPPGILAPQPPDVGSSDPLSLVGCSQGRSPSYES | 24.5% |  |  |  |  |  |  |  | 
Compound 73: GLP-1/FGF21 fusion polypeptide SEQ ID NO: 170 conjugated with Moiety B at 42C and 282C (conjugate, Moiety B conjugated at C42 and C282) HGEGTFTSDVSSYLEEQAAKEFIAWLVKGGGGAQPGAQPGQCPGAQPGAQPGAQPGAQPGAQPGAQPGAQPGAQPGAQPGAQPGAQPGAQPGAQPGAQPGAQPGAQPGAQPHPIPDSSPLLQFGGQVRQRYLYTDDAQQTEAHLEIREDGTVGGAADQSPESLLQLKALKPGVIQILGVKTSRFLCQRPDGALYGSLHFDPEACSFRELLLEDGYNVYQSEAHGLPLHLPGQKSPHRDPAPRGPARFLPLPGLPPALPEPPGILAPQPPDVGSSDPLSLVGCSQGRSPSYES | 20.2% |  |  |  |  |  |  |  | 
Compound 72: GLP-1/FGF21 fusion polypeptide SEQ ID NO: 169 conjugated with Moiety B at 62C and 282C (conjugate, Moiety B conjugated at C62 and C282) HGEGTFTSDVSSYLEEQAAKEFIAWLVKGGGGAQPGAQPGAQPGAQPGAQPGAQPGAQPGQCPGAQPGAQPGAQPGAQPGAQPGAQPGAQPGAQPGAQPGAQPGAQPGAQPHPIPDSSPLLQFGGQVRQRYLYTDDAQQTEAHLEIREDGTVGGAADQSPESLLQLKALKPGVIQILGVKTSRFLCQRPDGALYGSLHFDPEACSFRELLLEDGYNVYQSEAHGLPLHLPGQKSPHRDPAPRGPARFLPLPGLPPALPEPPGILAPQPPDVGSSDPLSLVGCSQGRSPSYES | 25.8% |  |  |  |  |  |  |  | 
Compound 4: GLP-1/FGF21 fusion polypeptide SEQ ID NO: 4 conjugated with Moiety A at 51K and 231K (conjugate, Moiety A conjugated at K51 and K231) HGEGTFTSDVSSYLEEQAAREFIAWLVRGGGGGGGSGGGGSGGGGSGGGGKHPIPDSSPLLQFGGQVRQRYLYTDDAQQTEAHLEIREDGTVGGAADQSPESLLQLRALRPGVIQILGVRTSRFLCQRPDGALYGSLHFDPEACSFRELLLEDGYNVYQSEAHGLPLHLPGQRSPHRDPAPRGPARFLPLPGLPPALPEPPGILAPQPPDVGSSDPLSLVGGSQGRSPSYKS | 27.0% | much more enhanced and persistent BW reduction | larger AUC | significantly prolonged half-lives | better PK properties | 1019.6 nmol·h/L | 58.3 nM | 19.7 h | 8 h
Compound 10: GLP-1/FGF21 fusion polypeptide SEQ ID NO: 10 conjugated with Moiety A at 222K (conjugate, Moiety A conjugated at K222) HGEGTFTSDVSSYLEEQAAREFIAWLVRGGGGGGGSGGGGSGGGGSGGGGSHPIPDSSPLLQFGGQVRQRYLYTDDAQQTEAHLEIREDGTVGGAADQSPESLLQLRALRPGVIQILGVRTSRFLCQRPDGALYGSLHFDPEACSFRELLLEDGYNVYQSEAHGLPLHLPGQRSPHRDPAPRGPARFLPLPGLPPALPEPPGILAPQPPDVGSSDPLSLVGKSQGRSPSYES | 20.0% | much more enhanced and persistent BW reduction | larger AUC |  |  | 465.1 nmol·h/L | 50.2 nM | 1.9 h | 4 h
Compound 19: GLP-1/FGF21 fusion polypeptide SEQ ID NO: 19 conjugated with Moiety A at 51K and 222K (conjugate, Moiety A conjugated at K51 and K222) HGEGTFTSDVSSYLEEQAAREFIAWLVRGGGGGGGSGGGGSGGGGSGGGGKHPIPDSSPLLQFGGQVRQRYLYTDDAQQTEAHLEIREDGTVGGAADQSPESLLQLRALRPGVIQILGVRTSRFLCQRPDGALYGSLHFDPEACSFRELLLEDGYNVYQSEAHGLPLHLPGQRSPHRDPAPRGPARFLPLPGLPPALPEPPGILAPQPPDVGSSDPLSLVGKSQGRSPSYES | 27.0% |  | larger AUC | significantly prolonged half-lives | better PK properties | 1018 nmol·h/L | 59.9 nM | 10.8 h | 4 h
Compound 52: GLP-1/FGF21 fusion polypeptide SEQ ID NO: 149 conjugated with Moiety B at 51C and 225C (conjugate, Moiety B conjugated at C51 and C225) HGEGTFTSDVSSYLEEQAAKEFIAWLVRGGGGGGGSGGGGSGGGGSGGGGCHPIPDSSPLLQFGGQVRQRYLYTDDAQQTEAHLEIREDGTVGGAADQSPESLLQLKALKPGVIQILGVKTSRFLCQRPDGALYGSLHFDPEACSFRELLLEDGYNVYQSEAHGLPLHLPGQKSPHRDPAPRGPARFLPLPGLPPALPEPPGILAPQPPDVGSSDPLSLVGGSQCRSPSYES | 20.9% |  |  |  |  |  |  |  | 
Compound 54: GLP-1/FGF21 fusion polypeptide SEQ ID NO: 151 conjugated with Moiety B at 51C and 231C (conjugate, Moiety B conjugated at C51 and C231) HGEGTFTSDVSSYLEEQAAKEFIAWLVRGGGGGGGSGGGGSGGGGSGGGGCHPIPDSSPLLQFGGQVRQRYLYTDDAQQTEAHLEIREDGTVGGAADQSPESLLQLKALKPGVIQILGVKTSRFLCQRPDGALYGSLHFDPEACSFRELLLEDGYNVYQSEAHGLPLHLPGQKSPHRDPAPRGPARFLPLPGLPPALPEPPGILAPQPPDVGSSDPLSLVGGSQGRSPSYCS | 13.5% |  |  |  |  |  |  |  | 
Compound 9: GLP-1/FGF21 fusion polypeptide SEQ ID NO: 9 conjugated with Moiety A at 231K (conjugate, Moiety A conjugated at K231) HGEGTFTSDVSSYLEEQAAREFIAWLVRGGGGGGGSGGGGSGGGGSGGGGSHPIPDSSPLLQFGGQVRQRYLYTDDAQQTEAHLEIREDGTVGGAADQSPESLLQLRALRPGVIQILGVRTSRFLCQRPDGALYGSLHFDPEACSFRELLLEDGYNVYQSEAHGLPLHLPGQRSPHRDPAPRGPARFLPLPGLPPALPEPPGILAPQPPDVGSSDPLSLVGGSQGRSPSYKS | 27.2% |  | larger AUC |  |  | 791.2 nmol·h/L | 65.6 nM | 3.5 h | 6 h
